Reference: patent publication US20120094909A1 (Bristol-Myers Squibb, published 2012)
Substitutions are numbered along the chain they refer to. Names may count otherwise.

B1: 2382D08 (designed binder)
chain: MGVSDVPRDLEVVAATPTSLLISWDAPADGYGYYRITYGETGGNSPVQEFTVPVSKGTATISGLKPGVDYTITVYAVEFPFPGSGYYHRPISINYRTEIDKPSQHHHHHH
B2: 2011B11 (designed binder)
chain: MGVSDVPRDLEVVAATPTSLLISWAPPSDAYGYYRITYGETGGNSPVQEFTVPIGKGTATISGLKPGVDYTITVYAVEYPYSHAGYYHRPISINYRTEIDKPSQHHHHHH
B3: 2011H05(V23D) (designed binder)
chain: B2 chain with A25D, P27S, D29H, I54V, K56V, P80A, Y81F, S82E, H83G
B4: 2011H05(V23E) (designed binder)
chain: B2 chain with A25E, P27S, D29H, I54V, K56V, P80A, Y81F, S82E, H83G
B5: 2382B08 (designed binder)
chain: B1 chain with G30A, V54S, P80A, S84A
B6: 2382B11 (designed binder)
chain: B1 chain with D29A, G30A, F79Y, P80D, P82A
B7: 2382C11 (designed binder)
chain: B1 chain with D29G, F79Y, P80D, P82A
B8: 2382E09 (designed binder)
chain: B1 chain with D29E, G30A, F79Y, P80D
B9: 2382F08 (designed binder)
chain: B1 chain with D29E, G30A, P80T, F81Y
B10: 2382F09 (designed binder)
chain: B1 chain with D29A, G30A, F79Y, P80D
B11: 2382H07 (designed binder)
chain: B1 chain with G30A, V54G, P80D
B12: 2382H11 (designed binder)
chain: B1 chain with S55F, P80D, F81Y
B13: 2451A02 (designed binder)
chain: B1 chain with D29A
B14: 2451B02 (designed binder)
chain: B1 chain with D29A, G30A, P80D, F81Y
B15: 2451B05 (designed binder)
chain: B1 chain with D29G, V54S, P80D, F81Y
B16: 2451D05 (designed binder)
chain: B1 chain with D29G, G30A, P80D
B17: 2451F03 (designed binder)
chain: B1 chain with A26P, D29E, P80N
B18: 1923B02(N82I) (designed binder)
chain: MGVSDVPRDLEVVAATPTSLLISWTPPPKGYGYYRITYGETGGNSPVQEFTVPVGEGTATISGLKPGVDYTITVYAVEYTYIGAGYYHRPISINYRTGSGSHHHHHH
B19: 1923B02(N82E) (designed binder)
chain: B18 chain with I82E
B20: 1923B02(T80A) (designed binder)
chain: B18 chain with T80A, I82N
B21: 1922G04(R25S) (designed binder)
chain: B18 chain with T25S, P28S, K29H, G30A, V54I, E56K, T80P, Y81W, I82K, A84S
B22: 1784F03-m1 (designed binder)
chain: B1 chain with A28I, D29H, G30A, V54G, K56E, F79Y, P80T, P82K, G83H
B23: 1784F03-m2 (designed binder)
chain: B1 chain with D29H, G30A, V54G, F79Y, P80T, P82K, G83H
B24: 1784F03-m3 (designed binder)
chain: B1 chain with D29V, G30T, V54G, G57S, F79Y, P80T, P82K, G83H
B25: 2971A03 (designed binder)
chain: B2 chain with A25D, A30D, Y79F, Y81W, S82P
notes: Anti-PCSK9 Adnectin, His6-tagged
B26: 2971A09 (designed binder)
chain: B1 chain with G30D, V54I, S55G, F81W, G83H, S84A
notes: as for B25
B27: 2971E02 (designed binder)
chain: B2 chain with A25D, P26A, A30D, Y79F, Y81W, S82P
notes: as for B25
B28: ATI001114 (designed binder)
chain: MGVSDVPRDLEVVAATPTSLLISWVPPSDDYGYYRITYGETGGNSPVQEFTVPIGKGTATISGLKPGVDYTITVYAVEFPWPHAGYYHRPISINYRTGSGCHHHHHH
modifications: PEGylated on the cysteine of the C-terminal GSGC tail (two-branched 40 kDa PEG)
notes: PEGylated version of the 2013E01 Adnectin, His6-tagged; also called ATI1114
B29: ATI001117 (designed binder)
chain: B18 chain with T25V, P27S, P28S, K29H, G30A, E56V, T80A, Y81F, I82E, S101C
modifications: PEGylated on the cysteine of the C-terminal tail (marked by asterisk in Table 5 as having been pegylated; PEG not specified)
notes: Anti-PCSK9 Adnectin, cysteine mutant of 2011H05, His6-tagged; also called 2011H05 Cys mut
B30: ATI001119 (designed binder)
chain: MGVSDVPRDLEVVAATPTSLLISWRPPSNGHGYYRITYGETGGNSPVQEFTVPVNEGTATISGLKPGVDYTITVYAVEFPFKWSGYYHRPISINYRTGSGCHHHHHH
modifications: PEGylated on the cysteine of the C-terminal tail (marked by asterisk in Table 5 as having been pegylated; PEG not specified)
notes: Anti-PCSK9 Adnectin, cysteine mutant of 2012A04, His6-tagged; also called 2012A04 Cys mut
B31: ATI001168 (designed binder)
chain: B2 chain with A25E, D29H, Y81W, S82K, H83G, A84S
B32: ATI001175 (designed binder)
chain: B2 chain with A25D, D29H, Y81W, S82K, H83G, A84S
B33: 2451B06 (designed binder)
chain: MGVSDVPRDLEVVAATPTSLLISWDAPADGGYGYYRITYGETGGNSPVQEFTVPVSKGTATISGLKPGVDYTITVYAVEFDFPGAGYYHRPISINYRTEIDKPSQHHHHHH

Molecular target: T1, human PCSK9 (proprotein convertase subtilisin kexin type 9) (human, UniProt Q8NBP7 31-692)
Assay: cell-based or functional assay

Point of comparison: B10, “LDLR Depletion (% inhibition at 75 nM)” value 110%. Against it:
- B1 — lower, 107%
- B2 — higher, 144%
- B5 — lower, 107%
- B6 — lower, 88.8%
- B7 — lower, 82.9%
- B8 — lower, 97.2%
- B9 — lower, 105%
- B11 — lower, 86.2%
- B12 — higher, 117%
- B13 — lower, 106%
- B14 — lower, 71.4%
- B15 — lower, 91.7%
- B16 — higher, 115%
- B17 — higher, 113%

Point of comparison: B20, “LDLR Depletion EC50” value 42 nM. Against it:
- B3 — 2.3-fold lower, 18 nM
- B4 — 3.5-fold lower, 12 nM
- B18 — 3-fold lower, 14 nM
- B19 — 1.5-fold lower, 28 nM
- B21 — 2-fold lower, 21 nM
- B22 — higher, > 2000 nM
- B23 — higher, > 2000 nM
- B24 — higher, > 2000 nM

Molecular target: T2, human PCSK9 (proprotein convertase subtilisin kexin type 9) (human, UniProt Q8NBP7 31-692)
T2 construct: Directly immobilized (SPR ProteOn), biotinylated (BLI), or in solution, depending on the assay; also called hPCSK9
Assay: BLI, biotinylated hPCSK9 on sensor tips
Experimental: Tips were then immersed into a buffer-only well for observation of Adnectin dissociation. Experiments were performed in a temperature controlled environment at either 25 or 37° C., and the oscillation speed was set at 1500 rpm.
Binding interaction analysis was performed using proprietary software from Fortebio (Fortebio Data Analysis Software version 6.3.0.36). Global fits were performed for all samples, using a 1:1 binding model. The nature of these global fits constrained all values of concentration to a single pair of association and dissociation rates that were themselves constrained to each other. Affinities (KD), association and dissociation rates were averaged over the various loading levels used in the analysis.

Point of comparison: B26, Kd 2.79 nM. Against it:
- B25 — 3.5-fold lower, 0.806 nM
- B27 — 1.6-fold lower, 1.78 nM
- B28 — 1.7-fold higher, 4.88 nM
- B29 — 5-fold lower, 0.554 nM
- B30 — 1.9-fold higher, 5.3 nM
- B31 — 4.8-fold lower, 0.586 nM
- B32 — 5.1-fold lower, 0.543 nM

Point of comparison: B32, koff 0.000352 s⁻¹. Against it:
- B25 — within 1.5-fold, 0.00042 s⁻¹
- B26 — 3-fold higher, 0.00105 s⁻¹
- B27 — 1.6-fold higher, 0.000555 s⁻¹
- B28 — within 1.5-fold, 0.000395 s⁻¹
- B29 — 6.9-fold lower, 5.07e-05 s⁻¹
- B30 — within 1.5-fold, 0.000445 s⁻¹
- B31 — within 1.5-fold, 0.000333 s⁻¹

Point of comparison: B29, kon 145000 M⁻¹ s⁻¹. Against it:
- B25 — 4-fold higher, 574000 M⁻¹ s⁻¹
- B26 — 2.8-fold higher, 399000 M⁻¹ s⁻¹
- B27 — 2.4-fold higher, 355000 M⁻¹ s⁻¹
- B28 — 1.8-fold lower, 80700 M⁻¹ s⁻¹
- B30 — 1.8-fold lower, 81900 M⁻¹ s⁻¹
- B31 — 4-fold higher, 583000 M⁻¹ s⁻¹
- B32 — 4.5-fold higher, 656000 M⁻¹ s⁻¹

Molecular target: T1, human PCSK9 (proprotein convertase …)
Assay: PCSK9:EGFA FRET, competitor EGFA peptide

Point of comparison: B8, EC50 6.2 nM. Against it:
- B1 — 2-fold lower, 3.1 nM
- B2 — 3.6-fold lower, 1.7 nM
- B3 — within 1.5-fold, 5.5 nM
- B4 — within 1.5-fold, 7.4 nM
- B5 — 2.1-fold lower, 2.9 nM
- B6 — 2.1-fold lower, 2.9 nM
- B7 — 1.7-fold lower, 3.7 nM
- B9 — 2.5-fold lower, 2.5 nM
- B10 — 2-fold lower, 3.1 nM
- B11 — 2.3-fold lower, 2.7 nM
- B12 — 2.1-fold lower, 2.9 nM
- B13 — 1.9-fold lower, 3.2 nM
- B14 — within 1.5-fold, 5.3 nM
- B15 — within 1.5-fold, 6.3 nM
- B16 — 2.2-fold lower, 2.8 nM
- B17 — 2.2-fold lower, 2.8 nM
- B33 — within 1.5-fold, 4.5 nM
